Experimental data: US9994881B2, “Functionalized carboxylic acids and alcohols by reverse fatty acid oxidation in engineered microbes” (William Marsh Rice University, priority 2011, dated 2018)

Columns and labels:
[1] = substrate: CC(=O)CC(=O)SCCNC(=O)CCNC(=O)[C@H](O)C(C)(C)COP(=O)(O)OP(=O)(O)OC[C@H]1O[C@@H](n2cnc3c(N)ncnc32)[C@H](O)[C@@H]1OP(=O)(O)O; experiment: purified protein, by the assay type; type: biochemical, Escherichia coli; settings: other: reverse direction, pH 7.5, 2 mM CoA, 25° C.
From the text: (§1) For enzyme characterization, E. coli fadA and fadB genes were cloned from MG1655 genomic DNA into the pUCBB-ntH6 vector^43 to yield a constitutively expressed gene with a n-terminal 6 His-tag that can be cleaved by Thrombin. fadA was amplified as two halves with the primers fadANdeI5p:fadAmidrev (1st half) and fadAmidfor:fadANotI3p (2nd half) (Supplementary Table S3).
(§2) fadB was amplified in three parts with fadBNdeI5p:fadBmid1rev (1st part), fadBmid1for:fadBmid2rev (2nd part), and fadBmid2for:fadBNotI3p (3rd part) (Supplementary Table S3). fadA and fadB PCR products sections were combined by overlap extension PCR to yield the whole genes, which were subsequently digested with NdeI and NotI restriction enzymes and ligated into pUCBB-ntH6 that was previously digested with NdeI and NotI to yield pUCBB-ntH6-FadA and pUCBB-ntH6-FadB.
(§3) Cultures for enzymatic assays were grown overnight in 100 mL of LB media at 37° C. in 250 mL baffled flasks (Wheaton Industries, Inc., Millville, N.J.) in E. coli BL21 (DE3) cells induced with either 1 mM IPTG (pCA24N, pTrcHis2A) or 1 mM Arabinose (pUCBB-pBAD) at an OD600˜0.6, or expressed constitutively (pUCBB-ntH6). Reactions were monitored on either a Synergy HT plate reader (BioTek Instruments, Inc., Winooski, Vt.) at 25° C. (for reactions monitored at 300 nm or higher) or in a Biomate 5 Spectrophotometer (Thermo Scientific, Waltham, Mass.) for reactions at 263 nm. […]
(§4) For kinetic characterization, his-tagged proteins of AtoB, FadA, FadB, caHBD, egTER were purified from the B-PER supernatant fractions using Talon Metal Affinity Resin (Clontech Laboratories, Inc., Mountain View, Calif.) using gravity purification. […] Enzyme concentration was established by measuring the absorbance at […] and extinction coefficients predicted for each enzyme by the ProtParam program (web.expasy.org/protparam/).
(§5) For kinetic characterization, an appropriate amount of enzyme was established by checking linear range near predicted KM values. Then, the rates were measured for a range of substrates in order to establish kcat and KM. […]

[2] = substrate: C/C=C/C(=O)SCCNC(=O)CCNC(=O)[C@H](O)C(C)(C)COP(=O)(O)OP(=O)(O)OC[C@H]1O[C@@H](n2cnc3c(N)ncnc32)[C@H](O)[C@@H]1OP(=O)(O)O; experiment: purified protein, by the assay type; settings: other: pH 7.5, 200 mM KCl, DTNB, 25° C.
Experimental: (§6) Cells were lysed using Bacterial Protein Extraction Reagent (B-PER) (Thermo Scientific, Waltham, Mass.) as per the prescribed protocol in order to obtain the supernatant containing the active enzymes.
(§7) For kinetic characterization, an appropriate amount of enzyme was established by checking linear range near predicted KM values. Then, the rates were measured for a range of substrates in order to establish kcat and KM. In the cases of FadB for the crotonase reaction and FadA in the “forward” thiolase reaction coupled with HBD, substrate saturation could not be established, as such, the kcat/KM for the reaction was determined by dividing the linear slope of Velocity vs. [Substrate] by the amount of enzyme used in the assays. For reactions that could be saturated, Velocity vs. [Substrate] was fitted by the EnzKIN Matlab module (mathworks.com/matlabcentral/fileexchange/26653) to establish Vmax and KM.
(§8) Thioesterase activity was monitored by following the production of TNB at 412 nm (ε=4.3 mM^−1 cm^−1)^30. Reactions were carried out in the presence of 100 mM Tris pH 7.5, 200 mM KCl, 25 mM DTNB and 200 μM of the ‘-CoA’ substrate in a volume of 200 μL at 25° C.

[3] = substrate: CC(=O)CC(=O)SCCNC(=O)CCNC(=O)[C@H](O)C(C)(C)COP(=O)(O)OP(=O)(O)OC[C@H]1O[C@@H](n2cnc3c(N)ncnc32)[C@H](O)[C@@H]1OP(=O)(O)O; experiment: purified protein, by the assay type; settings: 25° C.
[4] = substrate: CC(=O)SCCNC(=O)CCNC(=O)[C@H](O)C(C)(C)COP(=O)(O)OP(=O)(O)OC[C@H]1O[C@@H](n2cnc3c(N)ncnc32)[C@H](O)[C@@H]1OP(=O)(O)O; experiment: purified protein, by the assay type; settings: 25° C.
[5] = substrate: CC(O)CC(=O)SCCNC(=O)CCNC(=O)[C@H](O)C(C)(C)COP(=O)(O)OP(=O)(O)OC[C@H]1O[C@@H](n2cnc3c(N)ncnc32)[C@H](O)[C@@H]1OP(=O)(O)O; experiment: purified protein, by the assay type; settings: other: pH 7.5, 200 mM KCl, DTNB, 25° C.
Experimental: as §6, §7, §8

[6] = substrate: CCCC(=O)SCCNC(=O)CCNC(=O)[C@H](O)C(C)(C)COP(=O)(O)OP(=O)(O)OC[C@H]1O[C@@H](n2cnc3c(N)ncnc32)[C@H](O)[C@@H]1OP(=O)(O)O; experiment: purified protein, by the assay type; settings: other: pH 7.5, 200 mM KCl, DTNB, 25° C.
Experimental: as §6, §7, §8

[7] = substrate: C/C=C/C(=O)SCCNC(=O)CCNC(=O)[C@H](O)C(C)(C)COP(=O)(O)OP(=O)(O)OC[C@H]1O[C@@H](n2cnc3c(N)ncnc32)[C@H](O)[C@@H]1OP(=O)(O)O; experiment: Crotonyl-CoA reductase kinetics (loss of NADH absorbance); type: biochemical, Euglena gracilis; settings: other: NADH as co-factor, 0.2 mM NADH, pH 7.5, 25° C.
From the text: For AtoB and thioesterase characterization assays, the pCA24N-gene (-gfp) plasmids from the ASKA collection^44 were used. For expression of E. gracilis TER for kinetic characterization, the egTER gene was cloned into pTrcHis2A using the In-Fusion protocol (Clontech Laboratories, Inc., Mountain View, Calif.) following PCR amplification from the aforementioned codon-optimized egTER containing plasmid with the primer pair of F1pTH6hisEgter and R1pTH6hisEgter (Supplementary Table S3).
as §3, §4
For kinetic characterization, an appropriate amount of enzyme was established by checking linear range near predicted KM values. Then, the rates were measured for a range of substrates in order to establish kcat and KM. In the cases of FadB for the crotonase reaction and FadA in the “forward” thiolase reaction coupled with HBD, substrate saturation could not be established, as such, the kcat/KM for the reaction was determined by dividing the linear slope of Velocity vs. [Substrate] by the amount of enzyme used in the assays. […]

[8] = substrate: CC(=O)CC(=O)SCCNC(=O)CCNC(=O)[C@H](O)C(C)(C)COP(=O)(O)OP(=O)(O)OC[C@H]1O[C@@H](n2cnc3c(N)ncnc32)[C@H](O)[C@@H]1OP(=O)(O)O; experiment: 3-Hydroxyacyl-CoA (β-hydroxybutyryl-CoA) dehydrogenase kinetics (oxidation of NADH at 340 nm); type: biochemical, Escherichia coli; settings: other: NADH dependent reduction, pH 7.5, 0.2 mM NADH, 25° C.
From the text: as §1, §2, §3, §4, §5

[9] = other: pH 7.5, 200 mM KCl, DTNB
[10] = other: reverse direction, pH 7.5, 2 mM CoA
[11] = other: acetyl-CoA condensation, pH 7.5, 0.2 mM NADH

B1: E. coli FadA (3-ketoacyl-CoA thiolase, YP_026272.1), wild type, his-tagged (Escherichia coli K-12) (protein)
chain: MEQVVIVDAIRTPMGRSKGGAFRNVRAEDLSAHLMRSLLARNPALEAAALDDIYWGCVQQTLEQGFNIARNAALLAEVPHSVPAVTVNRLCGSSMQALHDAARMIMTGDAQACLVGGVEHMGHVPMSHGVDFHPGLSRNVAKAAGMMGLTAEMLARMHGISREMQDAFAARSHARAWAATQSAAFKNEIIPTGGHDADGVLKQFNYDEVIRPETTVEALATLRPAFDPVNGMVTAGTSSALSDGAAAMLVMSESRAHELGLKPRARVRSMAVVGCDPSIMGYGPVPASKLALKKAGLSASDIGVFEMNEAFAAQILPCIKDLGLIEQIDEKINLNGGAIALGHPLGCSGARISTTLLNLMERKDVQFGLATMCIGLGQGIATVFERV
notes: assayed alone without FadB
Km [1]: 422.5 ± 57.3 µM
kcat [1]: 0.75 ± 0.09 s⁻¹
kcat/Km [1]: 1770 M⁻¹ s⁻¹

B2: E. coli YciA (acyl-CoA thioesterase, NP_415769.1), wild type (Escherichia coli K-12) (protein)
chain: MSTTHNVPQGDLVLRTLAMPADTNANGDIFGGWLMSQMDIGGAILAKEIAHGRVVTVRVEGMTFLRPVAVGDVVCCYARCVQKGTTSVSINIEVWVKKVASEPIGQRYKATEALFKYVAVDPEGKPRALPVE
Km [2]: 1348.8 ± 235.5 µM
Km [3, 9]: 875.7 ± 180.9 µM
kcat [3, 9]: 265 ± 54.7 s⁻¹
kcat/Km [3, 9]: 302000 M⁻¹ s⁻¹
Km [4, 9]: 42.7 ± 1.2 µM
Km [5]: 353.8 ± 38.8 µM
Km [6]: 641.8 ± 91.9 µM
kcat [6]: 558 ± 79.6 s⁻¹
kcat/Km [6]: 869000 M⁻¹ s⁻¹

B3: Euglena gracilis trans-2-enoyl-CoA reductase egTER (AAW66853.1), his-tagged (Euglena gracilis) (protein)
chain: VPQMAEGFSGEATSAWAAAGPQWAAPLVAAASSALALWWWAARRSVRRPLAALAELPTAVTHLAPPMAMFTTTAKVIQPKIRGFICTTTHPIGCEKRVQEEIAYARAHPPTSPGPKRVLVIGCSTGYGLSTRITAAFGYQAATLGVFLAGPPTKGRPAAAGWYNTVAFEKAALEAGLYARSLNGDAFDSTTKARTVEAIKRDLGTVDLVVYSIAAPKRTDPATGVLHKACLKPIGATYTNRTVNTDKAEVTDVSIEPASPEEIADTVKVMGGEDWELWIQALSEAGVLAEGAKTVAYSYIGPEMTWPVYWSGTIGEAKKDVEKAAKRITQQYGCPAYPVVAKALVTQASSAIPVVPLYICLLYRVMKEKGTHEGCIEQMVRLLTTKLYPENGAPIVDEAGRVRVDDWEMAEDVQQAVKDLWSQVSTANLKDISDFAGYQTEFLRLFGFGIDGVDYDQPVDVEADLPSAAQQ
Km [7]: 98.5 ± 7.7 µM
kcat [7]: 1.14 ± 0.08 s⁻¹
kcat/Km [7]: 11600 M⁻¹ s⁻¹

B4: E. coli AtoB (thiolase), wild type, his-tagged (Escherichia coli K-12) (protein)
chain: MKNCVIVSAVRTAIGSFNGSLASTSAIDLGATVIKAAIERAKIDSQHVDEVIMGNVLQAGLGQNPARQALLKSGLAETVCGFTVNKVCGSGLKSVALAAQAIQAGQAQSIVAGGMENMSLAPYLLDAKARSGYRLGDGQVYDVILRDGLMCATHGYHMGITAENVAKEYGITREMQDELALHSQRKAAAAIESGAFTAEIVPVNVVTRKKTFVFSQDEFPKANSTAEALGALRPAFDKAGTVTAGNASGINDGAAALVIMEESAALAAGLTPLARIKSYASGGVPPALMGMGPVPATQKALQLAGLQLADIDLIEANEAFAAQFLAVGKNLGFDSEKVNVNGGAIALGHPIGASGARILVTLLHAMQARDKTLGLATLCIGGGQGIAMVIERLN
Km [3, 10]: 68.1 ± 2.56 µM
kcat [3, 10]: 9.23 s⁻¹
kcat/Km [3, 10]: 136000 M⁻¹ s⁻¹
Km [4, 11]: 892.0 ± 56.5 µM
kcat [4, 11]: 3.17 s⁻¹
kcat/Km [4, 11]: 3550 M⁻¹ s⁻¹

B5: E. coli FadB (hydroxyacyl-CoA dehydrogenase / enoyl-CoA hydratase, NP_418288.1), wild type, his-tagged (Escherichia coli K-12) (protein)
chain: MLYKGDTLYLDWLEDGIAELVFDAPGSVNKLDTATVASLGEAIGVLEQQSDLKGLLLRSNKAAFIVGADITEFLSLFLVPEEQLSQWLHFANSVFNRLEDLPVPTIAAVNGYALGGGCECVLATDYRLATPDLRIGLPETKLGIMPGFGGSVRMPRMLGADSALEIIAAGKDVGADQALKIGLVDGVVKAEKLVEGAKAVLRQAINGDLDWKAKRQPKLEPLKLSKIEATMSFTIAKGMVAQTAGKHYPAPITAVKTIEAAARFGREEALNLENKSFVPLAHTNEARALVGIFLNDQYVKGKAKKLTKDVETPKQAAVLGAGIMGGGIAYQSAWKGVPVVMKDINDKSLTLGMTEAAKLLNKQLERGKIDGLKLAGVISTIHPTLDYAGFDRVDIVVEAVVENPKVKKAVLAETEQKVRQDTVLASNTSTIPISELANALERPENFCGMHFFNPVHRMPLVEIIRGEKSSDETIAKVVAWASKMGKTPIVVNDCPGFFVNRVLFPYFAGFSQLLRDGADFRKIDKVMEKQFGWPMGPAYLLDVVGIDTAHHAQAVMAAGFPQRMQKDYRDAIDALFDANRFGQKNGLGFWRYKEDSKGKPKKEEDAAVEDLLAEVSQPKRDFSEEEIIARMMIPMVNEVVRCLEEGIIATPAEADMALVYGLGFPPFHGGAFRWLDTLGSAKYLDMAQQYQHLGPLYEVPEGLRNKARHNEPYYPPVEPARPVGDLKTA
notes: assayed alone without FadA
Km [8]: 390.0 ± 19.2 µM
kcat [8]: 25.9 ± 1.2 s⁻¹
kcat/Km [8]: 66500 M⁻¹ s⁻¹
